Publication PMC9770967, “Native holdup (nHU) to measure binding affinities from cell extracts” (Science Advances, 2022)

Assays:
SNX27_PDZ [1] = experiment: nHU-MS, SNX27_PDZ bait, total Jurkat extracts, series 1; type: binding, human; conditions: for pKapp_HU_not_filtered: SNX27 bait, not filtered for significance; for FC_HU: SNX27 vs MBP control
Method: The empty His6-AviTag-MBP-TEV vector was used to produce biotinylated MBP for control experiments. Proteins were coexpressed with BirA biotin ligase (PET21a-BirA, Addgene, no. 20857) in Escherichia coli BL21(DE3) cells. At isopropyl-β-D-thiogalactopyranoside (IPTG) induction (1 mM IPTG at 18°C overnight), 50 μM biotin was added to the media. Harvested cells were lysed in a buffer containing 50 mM tris (pH 7.5), 150 to 300 mM NaCl, 50 μM biotin, 2 mM β-mercaptoethanol, cOmplete EDTA-free protease inhibitor cocktail (Roche, Basel, Switzerland), 1% Triton X-100, and trace amount of deoxyribonuclease, ribonuclease, and lysozyme. Lysates were frozen at −20°C before further purification steps. Lysates were sonicated and centrifuged for clarification. Expressed proteins were captured on in-house prepacked Ni-IDA (Protino Ni-IDA Resin, Macherey-Nagel, Duren, Germany) columns and were washed with at least 10 column volumes of cold wash buffer [50 mM tris (pH 7.5), 150 mM NaCl, and 2 mM β-mercaptoethanol] before elution with 250 mM imidazole. The Ni elution was collected directly on a preequilibrated amylose column (amylose high flow resin, New England Biolabs, Ipswich, MA). Amylose column was washed with 5 column volumes of cold wash buffer before fractionated elution in a buffer containing 25 mM Hepes (pH 7.5), 150 mM NaCl, 1 mM TCEP, 10% glycerol, 5 mM maltose, and cOmplete EDTA-free protease inhibitor cocktail. The concentration of proteins was determined by their ultraviolet absorption at 280 nm before aliquots were snap-frozen in liquid nitrogen and stored at −80°C.
For saturating streptavidin resin with biotinylated peptides or biotin, 50 μl of streptavidin resin was mixed with biotin or peptide at 40 to 60 μM concentration in 6 to 6.5 resin volume for 60 min. To saturate streptavidin resin with biotinylated proteins, 50 μl of streptavidin resin (Streptavidin Sepharose High Performance, Cytiva) was mixed with biotinylated MBP or MBP-PDZ at 40 to 50 μM concentration in 20× resin volume for 60 min. After saturation, resins were washed a single time [10 resin volume, holdup buffer: 50 mM tris (pH 7.5), 300 mM NaCl, and 1 mM TCEP, 0.22-μm filtered] and were depleted with biotin (10 resin volume, 10 min, holdup buffer supplemented with 100 μM biotin). Last, resins were washed two times (10 resin volume, holdup buffer).
For single-point nHU experiments carried out at ~10 μM bait concentration, 50 μl of saturated streptavidin resin was mixed with 200 μl of cell lysate (2 mg/ml). Titration experiments were carried out by mixing control and bait-saturated resin and keeping the total resin volume constant; e.g., ~5 μM bait concentration can be achieved by mixing 25 μl of bait-saturated streptavidin resin with 25 μl of control resin and 200 μl of cell lysate (2 mg/ml). Control and bait-saturated resins were prepared in larger amounts, and a serial dilution was prepared with these presaturated resins to achieve different resin ratios.
Unless specified elswhere, the nHU mixture was incubated at 4°C for 2 hours. After the incubation ended, the resin was separated from the supernatant by a brief centrifugation (15 s, 2000 g). Then, half of the supernatant was removed by pipetting without any delay to avoid any resin contamination; e.g., 100 μl of supernatant is collected if 200 μl of cell lysate was used as analyte. Alternatively, the supernatant can be centrifuged an additional time to clarify it further, removing any possible resin contamination. In principle, the separation of the supernatant should be as fast as possible since any delay can perturb the equilibrium. […] Alternatively, the resin can be separated from the supernatant using filter plates (e.g., various products of Millipore, Burlington, MA) or spin columns (e.g., Pierce spin cups—cellulose acetate filter from Thermo Fisher Scientific, Waltham, MA) to achieve faster separation. […]

SNX27_PDZ [2] = experiment: AP-MS control pull-down on leftover resin, SNX27_PDZ bait, total Jurkat extracts; type: binding, human; conditions: for FC_AP: SNX27 vs MBP
Method: Leftover beads from nHU-MS experiments were washed three times immediately after the separation of the supernatant [10 resin volume in buffer containing 50 mM tris (pH 8.5), 150 mM NaCl, 1% Triton X-100, 10× cOmplete EDTA-free protease inhibitor cocktail, 2 mM EDTA, and 1 mM TCEP]. Then, the beads were washed two times [10 resin volume buffer containing 50 mM tris (pH 8.5), 150 mM NaCl, and 1 mM TCEP]. Last, captured protein was eluted from the resin in two steps, and the eluted fractions were pooled. For each elution, the beads were incubated for 30 min with three resin volume buffer containing 20 mM tris (pH 8.5), 100 mM NaCl, 500 μM TCEP, and 8 M urea. Between each step, the beads were separated by mild centrifugation, and the supernatant was removed by gentle pipetting.
The nHU samples were precipitated with trichloroacetic acid (TCA) 20% overnight at 4°C and centrifuged at 14,000 rpm for 10 min at 4°C. The protein pellets were washed twice with 1 ml of cold acetone and air-dried. The protein extracts were solubilized in 8 M urea, reduced with 5 mM TCEP for 30 min, and alkylated with 10 mM iodoacetamide for 30 min in the dark. Double digestion was performed at 37°C with 500 ng of endoproteinase Lys-C (Wako, Richmond, USA) for 4 hours, followed by fourfold dilution and an overnight digestion with 500 ng of trypsin (Promega, Charbonnieres les Bains, France). Peptide mixtures were then desalted on a C18 spin-column and dried on a speed vacuum.
Samples were analyzed using an Ultimate 3000 nano-RSLC coupled in line via a nano-electrospray ionization source, with an LTQ-Orbitrap ELITE mass spectrometer (Thermo Fisher Scientific, San Jose, CA) or with the Orbitrap Exploris 480 mass spectrometer (Thermo Fisher Scientific, Bremen, Germany) equipped with a high field asymmetric ion mobility spectrometry (FAIMS) module. Peptide mixtures were injected in 0.1% trifluoroacetic acid on a C18 Acclaim PepMap100 trap column [75 μm inner diameter (ID) × 2 cm, 3 μm, 100 Å, Thermo Fisher Scientific] for 3 min at 5 μl/min with 2% acetonitrile (ACN) and 0.1% formic acid (FA) in H2O and then separated on a C18 Acclaim PepMap100 nano-column (75 μm ID × 50 cm, 2.6 μm, 150 Å, Thermo Fisher Scientific) at 300 nl/min and 40°C with a 90-min linear gradient from 5 to 30% buffer B (A: 0.1% FA in H2O/B: 80% ACN, 0.1% FA in H2O) and regeneration at 5% B. Spray voltage was set to 2.1 kV and heated capillary temperature was set to 280°C.
For the Orbitrap Elite, the mass spectrometer was operated in positive ionization mode in data-dependent mode with survey scans from mass/charge ratio (m/z) 350 to 1500 acquired in the Orbitrap at a resolution of 120,000 at m/z 400. The 20 most intense peaks from survey scans were selected for further fragmentation in the linear ion trap with an isolation window of 2.0 Da and were fragmented by collision-induced dissociation (CID) with a normalized collision energy of 35% (TOP 20 CID method). Unassigned and single-charged states were excluded from fragmentation. The ion target value for the survey scans (in the Orbitrap) and the MS2 mode (in the linear ion trap) were set to 1E6 and 5E3, respectively, and the maximum injection time was set to 100 ms for both scan modes. Dynamic exclusion was set to 20 s after one repeat count with mass width at ±10 parts per million (ppm).
Proteins were identified by database search using SequestHT (Thermo Fisher Scientific) with Proteome Discoverer 2.4 software (PD2.4, Thermo Fisher Scientific) on the human FASTA database downloaded from UniProt (reviewed, release 2021_06_03, 20380 entries, https://uniprot.org/, complemented with sequences of likely contaminants, such as MBP, streptavidin, or trypsin). Precursor and fragment mass tolerances were set at 7 ppm and 0.6 Da, respectively, and up to two missed cleavages were allowed. […]

[3] = nHU-MS, SNX27/MBP, total Jurkat extract, sheet "SNX27&Jurkat"
[4] = nHU-MS, SNX27 bait vs MBP control, total Jurkat extract, sheet "SNX27&Jurkat"
[5] = nHU-MS, total Jurkat extract, sheet "SNX27&Jurkat"
[6] = AP-MS control pull-down, SNX27/MBP, total Jurkat extract
[7] = AP-MS control pull-down, total Jurkat extract
[8] = Jurkat, series 1, leftover resin, n = 6

pKapp_HU_not_filtered (SNX27_PDZ [1]; nHU-MS, total Jurkat extract)	pKapp_significant_binders_HU (SNX27_PDZ [1]; apparent, Eq. 2, Jurkat, series 1, significant binders (1 σ, P < 0.05))	Molecule	Ratio_HU (SNX27_PDZ [1]; [3])	BI_HU (SNX27_PDZ [1]; [4])	FC_HU (SNX27_PDZ [1]; [5])	Ratio_AP (SNX27_PDZ [2]; [6])	FC_AP (SNX27_PDZ [2]; [7])	BINDER_AP (SNX27_PDZ [2]; AP-MS control pull-down, total Jurkat extract, BINDS / DOES NOT BIND)	BI_HU (SNX27_PDZ [1]; Jurkat, series 1, n = 6)	FC_HU (log2 fold change) (SNX27_PDZ [1]; Jurkat, series 1, n = 6)	Ratio_HU (SNX27_PDZ [1]; Jurkat, series 1, n = 6)	FC_AP (log2 fold change) (SNX27_PDZ [2]; [8])	Ratio_AP (SNX27_PDZ [2]; [8])
4.751	–	RAE1 (protein, UniProt P78406 1-368, looked up) mRNA export factor RAE1: MSLFGTTSGFGTSGTSMFGSATTDNHNPMKDIEVTSSPDDSIGCLSFSPPTLPGNFLIAGSWANDVRCWEVQDSGQTIPKAQQMHTGPVLDVCWSDDGSKVFTASCDKTAKMWDLSSNQAIQIAQHDAPVKTIHWIKAPNYSCVMTGSWDKTLKFWDTRSSNPMMVLQLPERCYCADVIYPMAVVATAERGLIVYQLENQPSEFRRIESPLKHQHRCVAIFKDKQNKPTGFALGSIEGRVAIHYINPPNPAKDNFTFKCHRSNGTNTSAPQDIYAVNGIAFHPVHGTLATVGSDGRFSFWDKDARTKLKTSEQLDQPISACCFNHNGNIFAYASSYDWSKGHEFYNPQKKNYIFLRNAAEELKPRNKK	0.6404	0.3596	-0.643	3.111	1.637	–	–	–	–	–	–
4.747	–	BYSL (protein, UniProt Q13895 1-437, looked up) Bystin: MPKFKAARGVGGQEKHAPLADQILAGNAVRAGVREKRRGRGTGEAEEEYVGPRLSRRILQQARQQQEELEAEHGTGDKPAAPRERTTRLGPRMPQDGSDDEDEEWPTLEKAATMTAAGHHAEVVVDPEDERAIEMFMNKNPPARRTLADIIMEKLTEKQTEVETVMSEVSGFPMPQLDPRVLEVYRGVREVLSKYRSGKLPKAFKIIPALSNWEQILYVTEPEAWTAAAMYQATRIFASNLKERMAQRFYNLVLLPRVRDDVAEYKRLNFHLYMALKKALFKPGAWFKGILIPLCESGTCTLREAIIVGSIITKCSIPVLHSSAAMLKIAEMEYSGANSIFLRLLLDKKYALPYRVLDALVFHFLGFRTEKRELPVLWHQCLLTLVQRYKADLATDQKEALLELLRLQPHPQLSPEIRRELQSAVPRDVEDVPITVE	0.6423	0.3577	-0.6386	9.097	3.185	DOES NOT BIND	–	–	–	–	–
–	4.739	DARS1: Aspartate--tRNA ligase, cytoplasmic (protein, UniProt P14868 1-501, looked up) Aspartate--tRNA ligase, …: MPSASASRKSQEKPREIMDAAEDYAKERYGISSMIQSQEKPDRVLVRVRDLTIQKADEVVWVRARVHTSRAKGKQCFLVLRQQQFNVQALVAVGDHASKQMVKFAANINKESIVDVEGVVRKVNQKIGSCTQQDVELHVQKIYVISLAEPRLPLQLDDAVRPEAEGEEEGRATVNQDTRLDNRVIDLRTSTSQAVFRLQSGICHLFRETLINKGFVEIQTPKIISAASEGGANVFTVSYFKNNAYLAQSPQLYKQMCICADFEKVFSIGPVFRAEDSNTHRHLTEFVGLDIEMAFNYHYHEVMEEIADTMVQIFKGLQERFQTEIQTVNKQFPCEPFKFLEPTLRLEYCEALAMLREAGVEMGDEDDLSTPNEKLLGHLVKEKYDTDFYILDKYPLAVRPFYTMPDPRNPKQSNSYDMFMRGEEILSGAQRIHDPQLLTERALHHGIDLEKIKAYIDSFRFGAPPHAGGGIGLERVTMLFLGLHNVRQTSMFPRDPKRLTP	–	–	–	–	–	–	0.3534	-0.629	0.6466	3.29	9.779
